Target: the molecule itself
Assay: SEC-MALS; POP3 PYD (1-83) alone on column HR 10/30 in 20 mM Tris-HCl pH 8.0, 150 mM NaCl; three-angle light scattering and refractive index detectors, ASTRA software

B1: PYD domain of PYRIN Domain-Only Protein 3 (POP3), amino acids 1-83 (domain or fragment, human, UniProt W6CW81 1-83, looked up)
chain: MESKYKEILLLTSLDNITDEELDRFKCFLPDEFNIATGKLHTLNSTSSQLDLKRWHGVCSEEDRIFQKLNYMLVAKCLREEQE
notes: PYRIN domain-only protein 3 (POP3), human, PYD domain, residues 1-83 of the 113-residue protein; The vector probably adds linker residues before the His6; also called POP3 PYD (1-83 aa); POP3PYD; not shown: His6, C-terminal, kept
stoichiometry N: 2

From article PMC7938106, “In vitro complex formation of human PYRIN domain-only protein 3 prevented by self-oligomerization of ASC PYD domain” (Saudi Journal of Biological Sciences, 2021)
